Laboratory results as given in patent publication EP4477673A1, “IMMUNOCONJUGATE AND USE THEREOF” (priority 2022, dated 2023).
Changes are numbered by the printed parent chain. Names may count otherwise. Where two headings read alike, the source gives them in different places.

Assays:
human PD-1 [1] = molecular target: T1, human PD-1 (human, UniProt Q15116 25-288); experiment: cell-based or functional assay
IL-2Rβ/γ on M07e cells = molecular target: T2, IL-2Rβ/γ on M07e cells (human, UniProt P14784 27-551; P31785 23-369); experiment: cell-based or functional assay
T2 sequence (looked up) 1: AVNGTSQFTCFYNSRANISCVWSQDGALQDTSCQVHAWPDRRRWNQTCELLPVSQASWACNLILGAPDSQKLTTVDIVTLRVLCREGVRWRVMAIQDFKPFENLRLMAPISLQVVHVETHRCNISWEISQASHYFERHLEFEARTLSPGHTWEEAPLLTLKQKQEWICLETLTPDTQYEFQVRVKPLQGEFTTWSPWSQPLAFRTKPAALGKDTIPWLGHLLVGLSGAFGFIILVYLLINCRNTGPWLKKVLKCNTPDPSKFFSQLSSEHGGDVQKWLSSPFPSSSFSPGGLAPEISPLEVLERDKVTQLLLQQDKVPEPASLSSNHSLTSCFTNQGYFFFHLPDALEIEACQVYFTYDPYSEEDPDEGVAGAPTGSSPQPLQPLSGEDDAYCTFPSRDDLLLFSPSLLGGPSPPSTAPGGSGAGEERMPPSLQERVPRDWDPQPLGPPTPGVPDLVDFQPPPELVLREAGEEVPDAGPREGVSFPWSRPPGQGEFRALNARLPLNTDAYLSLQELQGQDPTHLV
T2 sequence (looked up) 2: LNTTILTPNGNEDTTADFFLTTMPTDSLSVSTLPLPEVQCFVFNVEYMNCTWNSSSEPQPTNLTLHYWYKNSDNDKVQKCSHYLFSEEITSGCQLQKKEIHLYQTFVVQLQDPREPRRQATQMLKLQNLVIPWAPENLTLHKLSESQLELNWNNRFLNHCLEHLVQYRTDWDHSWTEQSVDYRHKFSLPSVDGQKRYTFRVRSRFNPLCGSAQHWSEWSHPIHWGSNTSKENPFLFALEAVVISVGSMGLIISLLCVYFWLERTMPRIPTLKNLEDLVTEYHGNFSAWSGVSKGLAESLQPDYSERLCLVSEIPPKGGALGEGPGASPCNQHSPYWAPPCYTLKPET

human PD-1 [2] = molecular target: T1, human PD-1; experiment: cell-based or functional assay; remark: listed apart in the source
human PD-1 [3] = molecular target: T1, human PD-1; experiment: cell-based or functional assay; remark: listed apart in the source
[4] = molecular target: T3, human IL-2Rβ/γ receptor heterodimer protein (Acrosystem, ILG-H5283) (human, UniProt P14784 27-239; P31785 23-262, limits assumed); experiment: SPR Biacore 8K; affinity for human IL-2Rβ/γ against A-PC
T3 sequence (looked up) 1: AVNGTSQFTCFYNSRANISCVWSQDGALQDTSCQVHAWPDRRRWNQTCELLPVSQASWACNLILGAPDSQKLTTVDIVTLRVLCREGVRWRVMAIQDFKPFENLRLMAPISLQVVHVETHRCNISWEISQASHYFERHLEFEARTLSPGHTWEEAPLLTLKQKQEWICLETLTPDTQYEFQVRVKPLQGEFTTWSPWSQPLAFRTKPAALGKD
T3 sequence (looked up) 2: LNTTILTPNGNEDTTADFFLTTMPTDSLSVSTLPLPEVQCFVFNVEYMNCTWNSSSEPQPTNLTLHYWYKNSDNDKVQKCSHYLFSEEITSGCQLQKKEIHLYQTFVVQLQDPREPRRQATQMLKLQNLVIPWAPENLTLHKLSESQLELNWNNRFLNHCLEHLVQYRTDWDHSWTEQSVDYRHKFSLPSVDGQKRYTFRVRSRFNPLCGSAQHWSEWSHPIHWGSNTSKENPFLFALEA

[5] = molecular target: T4, human IL-2Rα receptor protein (Sino Biological, 10165-H08H) (human, UniProt P01589 22-213); experiment: SPR Biacore 8K, fusion protein captured by anti-human IgG (Fc), IL-2Rα as analyte
T4 construct: also called CD25
T4 sequence (looked up): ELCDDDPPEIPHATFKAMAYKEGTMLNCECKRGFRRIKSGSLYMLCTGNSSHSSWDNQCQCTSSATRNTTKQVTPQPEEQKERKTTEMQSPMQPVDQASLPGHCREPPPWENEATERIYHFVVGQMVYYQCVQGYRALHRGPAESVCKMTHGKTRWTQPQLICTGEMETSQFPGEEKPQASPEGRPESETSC

[6] = molecular target: Human PD-1 antigen protein (Sino Biological, 10377-H08H) (human, UniProt Q15116 25-167); experiment: SPR Biacore 8K, fusion protein captured by anti-human IgG (Fc), human PD-1 as analyte
Sequence of Human PD-1 antigen protein (Sino Biological, 10377-H08H) (Q15116 25-167 limits assumed): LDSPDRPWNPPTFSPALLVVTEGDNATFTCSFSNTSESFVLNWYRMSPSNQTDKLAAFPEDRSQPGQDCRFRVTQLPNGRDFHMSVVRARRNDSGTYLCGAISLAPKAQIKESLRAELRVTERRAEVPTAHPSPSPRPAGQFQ

[7] = molecular target: T3, human IL-2Rβ/γ receptor heterodimer …; experiment: SPR Biacore 8K, fusion protein captured by anti-human IgG (Fc), human IL-2Rβ/γ heterodimer as analyte

T1 sequence (Q15116 25-288 limits assumed): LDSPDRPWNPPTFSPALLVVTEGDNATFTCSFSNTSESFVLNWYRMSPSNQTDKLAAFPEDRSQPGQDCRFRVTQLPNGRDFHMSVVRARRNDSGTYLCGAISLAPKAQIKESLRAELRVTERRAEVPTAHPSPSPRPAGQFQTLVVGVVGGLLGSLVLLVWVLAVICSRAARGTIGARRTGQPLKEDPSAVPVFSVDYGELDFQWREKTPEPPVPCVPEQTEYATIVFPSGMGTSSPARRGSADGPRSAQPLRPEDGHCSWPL

B1: A-N88D (Fc fusion)
chain (part 1 of 2): EVQLVESGGGLVQPGGSLRLSCAASGLTFSDYSMSWYRQAPGKGRELVAIISGSGVITHYVDSVKGRFTISRDNAKNTLYLQMRSLRAEDTAVYYCRAVSDWEDYWGQGTQVTVSS
chain (part 2 of 2): GGGGSGGGGSGGGGSAPASSSTKKTQLQLEHLLLDLQMILQGISNYKNPKLTRMLTAKFYMPKKATELKHLQCLEEELKPLEEVLQGAQSKNFHLRPRDLISDINVIVLELKGSETTFMCEYADETATIVEFLNRWITFAQSIISTLT
chain: B1 chain (part 1 of 2)
notes: also called PD-1-IL-2v (N88D); not shown: IgG1 hinge (C220S) + Fc Knob chain (L234A, L235A, S354C, T366W, EU); D356/L358 or E356/M358 ver; IgG1 hinge (C220S) + Fc Hole chain (L234A, L235A, Y349C, T366S, L368A, Y407V; may have H435R, Y436F; EU)
M07e-hPD-1 cell proliferation activity (%) at 0.0001 nM (human PD-1 [1]): 2.8%
M07e-hPD-1 cell proliferation activity (%) at 0.001 nM (human PD-1 [1]): 3.3%
M07e-hPD-1 cell proliferation activity (%) at 0.01 nM (human PD-1 [1]): 18.1%
M07e-hPD-1 cell proliferation activity (%) at 0.1 nM (human PD-1 [1]): 32.1%
M07e-hPD-1 cell proliferation activity (%) at 1 nM (human PD-1 [1]): 41.8%
M07e-hPD-1 cell proliferation activity (%) at 10 nM (human PD-1 [1]): 45%
M07e-hPD-1 cell proliferation activity (%) at 100 nM (human PD-1 [1]): 61.1%
M07e-hPD-1 cell proliferation activity (%) at 1000 nM (human PD-1 [1]): 66.9%
M07e cell proliferation activity (%) at 0.46 nM (IL-2Rβ/γ on M07e cells): -1.7%
M07e cell proliferation activity (%) at 1.4 nM (IL-2Rβ/γ on M07e cells): -1.1%
M07e cell proliferation activity (%) at 4.1 nM (IL-2Rβ/γ on M07e cells): -1.5%
M07e cell proliferation activity (%) at 12 nM (IL-2Rβ/γ on M07e cells): -1.9%
M07e cell proliferation activity (%) at 37 nM (IL-2Rβ/γ on M07e cells): -2.8%
M07e cell proliferation activity (%) at 111 nM (IL-2Rβ/γ on M07e cells): -1.8%
M07e cell proliferation activity (%) at 333 nM (IL-2Rβ/γ on M07e cells): 0.2%
M07e cell proliferation activity (%) at 1000 nM (IL-2Rβ/γ on M07e cells): 14.6%
M07e-hPD-1 cell proliferation ratio (%) at 0.0001 nM (human PD-1 [2]): 0.8%
M07e-hPD-1 cell proliferation ratio (%) at 0.001 nM (human PD-1 [2]): 0%
M07e-hPD-1 cell proliferation ratio (%) at 0.01 nM (human PD-1 [2]): 4.8%
M07e-hPD-1 cell proliferation ratio (%) at 0.1 nM (human PD-1 [2]): 18.3%
M07e-hPD-1 cell proliferation ratio (%) at 1 nM (human PD-1 [2]): 21.3%
M07e-hPD-1 cell proliferation ratio (%) at 10 nM (human PD-1 [2]): 25.2%
M07e-hPD-1 cell proliferation ratio (%) at 100 nM (human PD-1 [2]): 31.1%
M07e-hPD-1 cell proliferation ratio (%) at 1000 nM (human PD-1 [2]): 45.5%
M07e-hPD-1 cell proliferation ratio (%) at 0.0001 nM (human PD-1 [3]): 5.2%
M07e-hPD-1 cell proliferation ratio (%) at 0.001 nM (human PD-1 [3]): 4.4%
M07e-hPD-1 cell proliferation ratio (%) at 0.01 nM (human PD-1 [3]): 13.4%
M07e-hPD-1 cell proliferation ratio (%) at 0.1 nM (human PD-1 [3]): 30.8%
M07e-hPD-1 cell proliferation ratio (%) at 1 nM (human PD-1 [3]): 36%
M07e-hPD-1 cell proliferation ratio (%) at 10 nM (human PD-1 [3]): 35.5%
M07e-hPD-1 cell proliferation ratio (%) at 100 nM (human PD-1 [3]): 41.1%
M07e-hPD-1 cell proliferation ratio (%) at 1000 nM (human PD-1 [3]): 55.4%
fold lower affinity than A-PC [4]: ~13 fold
binding result [5]: no binding
Kd [6]: 17.6 nM
koff [6]: 0.00175 s⁻¹
kon [6]: 99800 M⁻¹ s⁻¹
Kd [7]: 3.38 nM
koff [7]: 0.000215 s⁻¹
kon [7]: 63700 M⁻¹ s⁻¹

B2: A-D20A (Fc fusion)
chain (part 1 of 2): B1 chain (part 1 of 2)
chain (part 2 of 2): B1 chain (part 2 of 2) with D35A, D103N
chain: B1 chain (part 1 of 2)
notes: also called PD-1-IL-2v (D20A); not shown: IgG1 hinge (C220S) + Fc Knob chain (L234A, L235A, S354C, T366W, EU); D356/L358 or E356/M358 ver; IgG1 hinge (C220S) + Fc Hole chain (L234A, L235A, Y349C, T366S, L368A, Y407V; may have H435R, Y436F; EU)
M07e-hPD-1 cell proliferation activity (%) at 0.0001 nM (human PD-1 [1]): 2.3%
M07e-hPD-1 cell proliferation activity (%) at 0.001 nM (human PD-1 [1]): 2.9%
M07e-hPD-1 cell proliferation activity (%) at 0.01 nM (human PD-1 [1]): 11.4%
M07e-hPD-1 cell proliferation activity (%) at 0.1 nM (human PD-1 [1]): 24.2%
M07e-hPD-1 cell proliferation activity (%) at 1 nM (human PD-1 [1]): 28.5%
M07e-hPD-1 cell proliferation activity (%) at 10 nM (human PD-1 [1]): 30.2%
M07e-hPD-1 cell proliferation activity (%) at 100 nM (human PD-1 [1]): 32%
M07e-hPD-1 cell proliferation activity (%) at 1000 nM (human PD-1 [1]): 39.2%
M07e cell proliferation activity (%) at 0.46 nM (IL-2Rβ/γ on M07e cells): -3%
M07e cell proliferation activity (%) at 1.4 nM (IL-2Rβ/γ on M07e cells): -2.6%
M07e cell proliferation activity (%) at 4.1 nM (IL-2Rβ/γ on M07e cells): -1.6%
M07e cell proliferation activity (%) at 12 nM (IL-2Rβ/γ on M07e cells): -3%
M07e cell proliferation activity (%) at 37 nM (IL-2Rβ/γ on M07e cells): -3.7%
M07e cell proliferation activity (%) at 111 nM (IL-2Rβ/γ on M07e cells): -2.4%
M07e cell proliferation activity (%) at 333 nM (IL-2Rβ/γ on M07e cells): -1.9%
M07e cell proliferation activity (%) at 1000 nM (IL-2Rβ/γ on M07e cells): 0.6%
M07e-hPD-1 cell proliferation ratio (%) at 0.0001 nM (human PD-1 [2]): 0.6%
M07e-hPD-1 cell proliferation ratio (%) at 0.001 nM (human PD-1 [2]): -0.3%
M07e-hPD-1 cell proliferation ratio (%) at 0.01 nM (human PD-1 [2]): 2.6%
M07e-hPD-1 cell proliferation ratio (%) at 0.1 nM (human PD-1 [2]): 8.4%
M07e-hPD-1 cell proliferation ratio (%) at 1 nM (human PD-1 [2]): 10.8%
M07e-hPD-1 cell proliferation ratio (%) at 10 nM (human PD-1 [2]): 10.8%
M07e-hPD-1 cell proliferation ratio (%) at 100 nM (human PD-1 [2]): 13.5%
M07e-hPD-1 cell proliferation ratio (%) at 1000 nM (human PD-1 [2]): 15.4%
fold lower affinity than A-PC [4]: ~63 fold
binding result [5]: no binding
Kd [6]: 18.5 nM
koff [6]: 0.00168 s⁻¹
kon [6]: 90600 M⁻¹ s⁻¹
Kd [7]: 16 nM
koff [7]: 0.000681 s⁻¹
kon [7]: 42700 M⁻¹ s⁻¹
